± gives the uncertainty stated by the source.
B1: WW domain-containing transcription regulator protein 1, residues 116 to 162; numbered along this chain, Q9GZV5 (parent)
chain: QSYDVTDELPLPPGWEMTFTATGQRYFLNHIEKITTWQDPRKAMNQP

Variants of: B1
Assay: abundance fitness (aPCA) (normalised: wild type 0, dead -1); higher = more abundant; growth selection in yeast, the domain comes from the species named
Settings: Homo sapiens

Row | Variant | abundance fitness
1 | I31N | -0.162 ± 0.23
2 | I31T | -0.011 ± 0.083
3 | I31V | -0.094 ± 0.074
4 | P13S | -0.067 ± 0.024
5 | P13T | -0.072 ± 0.045
6 | P13W | -0.245 ± 0.04
7 | P13L | -0.124 ± 0.034
8 | P47A | -0.06 ± 0.38
9 | P47S | -0.125 ± 0.06
10 | F27H | -0.707 ± 0.2
11 | F27I | -0.935 ± 0.066
12 | F27C | -0.825 ± 0.05
13 | F27M | -0.904 ± 0.035
14 | T22Q | -0.141 ± 0.045
15 | T22F | -0.35 ± 0.045
16 | T22V | -0.37 ± 0.029
17 | T22K | -0.087 ± 0.034
18 | T22N | -0.086 ± 0.041
19 | F19A | -0.06 ± 0.03
20 | F19L | -0.115 ± 0.031
21 | F19T | -0.108 ± 0.049

Row | Variant | abundance fitness
22 | D39F | -0.618 ± 0.059
23 | D39P | -0.588 ± 0.065
24 | D39V | -0.721 ± 0.065
25 | T18S | 0.05 ± 0.034
26 | T18E | -0.064 ± 0.03
27 | T18K | 0.097 ± 0.031
28 | M44D | 0.076 ± 0.064
29 | M44E | 0.03 ± 0.026
30 | M44F | 0.068 ± 0.058
31 | M44W | -0.15 ± 0.046
32 | H30F | -0.484 ± 0.04
33 | R41P | -0.785 ± 0.068
34 | R41N | -0.505 ± 0.064
35 | R41L | -0.747 ± 0.062
36 | R41T | -0.4 ± 0.042
37 | R41C | -0.689 ± 0.086
38 | R41M | -0.703 ± 0.099
39 | W37K | -0.305 ± 0.026
40 | W37Y | -0.073 ± 0.047
41 | W37D | -0.481 ± 0.057
42 | W37N | -0.364 ± 0.051

Row | Variant | abundance fitness
43 | V5Y | -0.354 ± 0.081
44 | V5M | -0.026 ± 0.035
45 | V5Q | -0.145 ± 0.046
46 | V5S | -0.053 ± 0.032
47 | V5T | 0.011 ± 0.044
48 | V5E | -0.088 ± 0.042
49 | Q1G | -0.163 ± 0.059
50 | Q1Y | -0.132 ± 0.13
51 | P40Q | -0.774 ± 0.053
52 | P40W | -1 ± 0.069
53 | P40S | -0.983 ± 0.064
54 | A21W | -0.448 ± 0.048
55 | A21C | -0.167 ± 0.05
56 | E32K | 0.006 ± 0.042
57 | E32I | -0.055 ± 0.04
58 | E32W | 0.094 ± 0.028
59 | E32R | 0.004 ± 0.024
60 | E32F | 0.122 ± 0.046
61 | E32Q | 0.033 ± 0.031
62 | E8A | -0.027 ± 0.026
63 | E8T | 0.01 ± 0.047

Row | Variant | abundance fitness
64 | E8P | -0.09 ± 0.039
65 | E8C | -0.163 ± 0.057
66 | M17T | -0.094 ± 0.037
67 | M17K | -0.214 ± 0.047
68 | M17G | -0.366 ± 0.026
69 | M17Q | 0.037 ± 0.044
70 | K42Y | -0.164 ± 0.037
71 | K42F | -0.128 ± 0.061
72 | K42R | -0.111 ± 0.04
73 | W15A | -0.913 ± 0.08
74 | G14N | -0.071 ± 0.043
75 | G14Y | -0.421 ± 0.028
76 | G14E | -0.21 ± 0.037
77 | G14S | -0.379 ± 0.036
78 | G14L | -0.823 ± 0.029
79 | G14W | -0.491 ± 0.036
80 | N29Q | -0.779 ± 0.061
81 | T35W | -0.581 ± 0.029
82 | T35P | -0.899 ± 0.081
83 | T35Q | -0.675 ± 0.069
